Assay results: patent publication US20250000992A1 (Eli Lilly, published 2025)
Residue numbers refer to the chain shown, from its start.

B1: Sandwich Ex. 4 (H3.03-PGRN-C90.43) (Fab)
heavy: EVQLVESGGGLVKPGGSLRLSCVASGFTFSSYSMNWVRQAPGKGLEWVSSISRSSSYIYYADSVKGRFTISRDNAKNSLYLQMNSLRAEDTAVYYCARIHGYSNSDAFDKWGQGTLVTVSSASTKGPCVFPLAPSSKSTSGGTAALGCLVKDYFPEPVTVSWNSGALTSGVHTFPAVLQSSGLYSLSSVVTVPSSSLGTQTYICNVNHKPSNTKVDKKVEPKSCDKTHTGGGGQGGGGQGGGGQTRCPDGQFCPVACCLDPGGASYSCCRPLLDKWPTTLSRHLGGPCQVDAHCSAGHSCIFTVSGTSSCCPFPEAVACGDGHHCCPRGFHCSADGRSCFQRSGNNSVGAIQCPDSQFECPDFSTCCVMVDGSWGCCPMPQASCCEDRVHCCPHGAFCDLVHTRCITPTGTHPLAKKLPAQRTNRAVALSSSVMCPDARSRCPDGSTCCELPSGKYGCCPMPNATCCSDHLHCCPQDTVCDLIQSKCLSKENATTDLLTKLPAHTVGDVKCDMEVSCPDGYTCCRLQSGAWGCCPFTQAVCCEDHIHCCPAGFTCDTQKGTCEQGPHQVPWMEKAPAHLSLPDPQALKRDVPCDNVSSCPSSDTCCQLTSGEWGCCPIPEAVCCSDHQHCCPQGYTCVAEGQCQRGSEIVAGLEKMPARRASLSHPRDIGCDQHTSCPVGQTCCPSLGGSWACCQLPHAVCCEDRQHCCPAGYTCNVKARSCEKEVVSAQPATFLARSPHVGVKDVECGEGHFCHDNQTCCRDNRQGWACCPYRQGVCCADRRHCCPAGFRCAARGTKCLRREAPRWDAPLRDPALRQLLGGGGQGGGGQGGGGQEVQLLESGGGLVQPGGSLRLSCAASGRYIDETAVAWFRQAPGKGREFVAGIGGGVDITYYADSVKGRFTISRDNSKNTLYLQMNSLRPEDTAVYYCGARPGRPLITSKVADLYPYWGQGTLVTVSSPP
light: DIQMTQSPSAMSASVGDRVTITCRASQGISNYLAWFQQKPGKVPKRLIYAASSLQSGVPSRFSGSGSGTEFTLTISSLQPEDFATYYCLQHNSYPRTFGQGTKVEIKRTVAAPSVFIFPPSDEQLKSGTASVVCLLNNFYPREAKVQWKVDNALQSGNSQESVTEQDSKDSTYSLSSTLTLSKADYEKHKVYACEVTHQGLSSPVTKSFNRGEC
notes: Fab fusion with the H3.03 Fab in place of 8D3
B2: Sandwich Ex. 2 (H09-PGRNΔpGF-C90.43) (Fab)
heavy: EVQLVESGGGLVKPGGSLRLSCVASGFTFSSYSMNWVRQAPGKGLEWVSSISSSSSYIYYADSVKGRFTISRDNAKNSLYLQMNSLRAEDTAVYYCARRHGYSNSDAFDNWGQGTLVTVSSASTKGPSVFPLAPSSKSTSGGTAALGCLVKDYFPEPVTVSWNSGALTSGVHTFPAVLQSSGLYSLSSVVTVPSSSLGTQTYICNVNHKPSNTKVDKKVEPKSCDKTGGGGQGGGGQGGGGQTPTGTHPLAKKLPAQRTNRAVALSSSVMCPDARSRCPDGSTCCELPSGKYGCCPMPNATCCSDHLHCCPQDTVCDLIQSKCLSKENATTDLLTKLPAHTVGDVKCDMEVSCPDGYTCCRLQSGAWGCCPFTQAVCCEDHIHCCPAGFTCDTQKGTCEQGPHQVPWMEKAPAHLSLPDPQALKRDVPCDNVSSCPSSDTCCQLTSGEWGCCPIPEAVCCSDHQHCCPQGYTCVAEGQCQRGSEIVAGLEKMPARRASLSHPRDIGCDQHTSCPVGQTCCPSLGGSWACCQLPHAVCCEDRQHCCPAGYTCNVKARSCEKEVVSAQPATFLARSPHVGVKDVECGEGHFCHDNQTCCRDNRQGWACCPYRQGVCCADRRHCCPAGFRCAARGTKCLRREAPRWDAPLRDPALRQLLGGGGQGGGGQGGGGQEVQLLESGGGLVQPGGSLRLSCAASGRYIDETAVAWFRQAPGKGREFVAGIGGGVDITYYADSVKGRFTISRDNSKNTLYLQMNSLRPEDTAVYYCGARPGRPLITSKVADLYPYWGQGTLVTVSSPP
light: B1 light with N31H, A34V, R96W
notes: also called H09 Fab-PGRNΔpGF-C90.43; H09-dPGF-C90.43
B3: Sandwich Ex. 1 (H09-PGRN-C90.43) (Fab)
heavy: B1 heavy with R53S, I99R, K110N, C128S
light: B1 light with N31H, A34V, R96W
notes: also called H09 Fab-PGRN-C90.43
B4: Sandwich Ex. 3 (8D3-PGRN-C90.43) (Fab)
heavy: EVQLVESGGGLVQPGNSLTLSCVASGFTFSNYGMHWIRQAPKKGLEWIAMIYYDSSKMNYADTVKGRFTISRDNSKNTLYLEMNSLRSEDTAMYYCAVPTSHYVVDVWGQGVSVTVSSASTKGPCVFPLAPSSKSTSGGTAALGCLVKDYFPEPVTVSWNSGALTSGVHTFPAVLQSSGLYSLSSVVTVPSSSLGTQTYICNVNHKPSNTKVDKKVEPKSCDKTHTGGGGQGGGGQGGGGQTRCPDGQFCPVACCLDPGGASYSCCRPLLDKWPTTLSRHLGGPCQVDAHCSAGHSCIFTVSGTSSCCPFPEAVACGDGHHCCPRGFHCSADGRSCFQRSGNNSVGAIQCPDSQFECPDFSTCCVMVDGSWGCCPMPQASCCEDRVHCCPHGAFCDLVHTRCITPTGTHPLAKKLPAQRTNRAVALSSSVMCPDARSRCPDGSTCCELPSGKYGCCPMPNATCCSDHLHCCPQDTVCDLIQSKCLSKENATTDLLTKLPAHTVGDVKCDMEVSCPDGYTCCRLQSGAWGCCPFTQAVCCEDHIHCCPAGFTCDTQKGTCEQGPHQVPWMEKAPAHLSLPDPQALKRDVPCDNVSSCPSSDTCCQLTSGEWGCCPIPEAVCCSDHQHCCPQGYTCVAEGQCQRGSEIVAGLEKMPARRASLSHPRDIGCDQHTSCPVGQTCCPSLGGSWACCQLPHAVCCEDRQHCCPAGYTCNVKARSCEKEVVSAQPATFLARSPHVGVKDVECGEGHFCHDNQTCCRDNRQGWACCPYRQGVCCADRRHCCPAGFRCAARGTKCLRREAPRWDAPLRDPALRQLLGGGGQGGGGQGGGGQEVQLLESGGGLVQPGGSLRLSCAASGRYIDETAVAWFRQAPGKGREFVAGIGGGVDITYYADSVKGRFTISRDNSKNTLYLQMNSLRPEDTAVYYCGARPGRPLITSKVADLYPYWGQGTLVTVSSPP
light: DIQMTQSPASLSASLEEIVTITCQASQDIGNWLAWYQQKPGKSPQLLIYGATSLADGVPSRFSGSRSGTQFSLKISRVQVEDIGIYYCLQAYNTPWTFGGGTKLELKRTVAAPSVFIFPPSDEQLKSGTASVVCLLNNFYPREAKVQWKVDNALQSGNSQESVTEQDSKDSTYSLSSTLTLSKADYEKHKVYACEVTHQGLSSPVTKSFNRGEC
notes: Fab fusion with the 8D3 Fab in place of H09

Tests used:
[1] = target: T1, Sortilin receptor on HEK293 cells (UniProt Q99523 78-831, limits assumed); experiment: told with the HEK293 cathepsin D assay (FIG. 5); no direct binding assay described
T1 construct: whole, on cells

[2] = target: Human TfR on HEK293 cells (human, UniProt P02786 1-760); experiment: cell-based or functional assay
[3] = target: T2, Cynomolgus TfR1 ECD, His tagged (cynomolgus, UniProt H9EXL1 89-760 (rhesus entry)); experiment: SPR, Biacore T200, 25 C, His-tagged ECD amine coupled to CM3 chip, construct injected, 1:1 fit
T2 construct: extracellular domain; Purchased from SYNGENE; also called cyno TfR1; cyno Tfr1; not shown: His tag
Method: (§1) To determine the binding kinetics and affinity of H09-PGRN and BACDE to human TfR1 (hTfR1), human TfR2 (hTfR2) and cynomolgus TfR1, binding affinities and kinetics for antibody to antigen were determined using a BIACORE® T200 instrument. The binding kinetics and affinity of antibodies H09-PGRN and BACDE to human TfR1 ECD were determined using surface plasmon resonance biosensor such as BIAcore® T200 (GE Healthcare, Piscataway, N.J.). Briefly described, BIAcore® T200 instrument is used to measure the binding kinetics for Sandwich Ex. 1 (H09-PGRN-C90.43) and Sandwich Ex. 2 (H09-PGRNΔpGF-C90.43 to hTfR1, hTfR2 and cyno Tfr1 via surface plasmon resonance (SPR) at 25° C. Samples are dissolved in 1×HBS-EP+running buffer (Teknova cat. #H802) and His tagged ECD of the hTfR1, hTfR2, and cyno TfR was amine coupled to the Cytiva CM3 Series S sensor chip.
(§2) Binding is evaluated using multiple analytical cycles. Each cycle is performed at 25° C. at a flow rate of 50 μl/min for ligand association and dissociation. Each kinetic cycle consists of the following steps: injection of the Sandwich Ex. 1 (H09-PGRN-C90.43) and Sandwich Ex. 2 (H09-PGRNΔpGF-C90.43) over all four flow cells (starting at 125 nM and using two-fold serial dilutions for each cycle) for 240 seconds and followed by 900 seconds for dissociation phase, and regeneration using 3 M MgCl2 […] over a 30 s contact time. Association (i e., kₒₙ) and dissociation rates (i.e., Koff) for each are evaluated using standard double referencing and fit to “1:1 (Langmuir) binding” model in the BiaEvaluation software in batch mode. The affinity (KD) is calculated from the binding kinetics according to the relationship K)=Koff/Kon.

[4] = target: T3, Human TfR1 ECD, hexa-histidine tagged (human, UniProt P02786 89-760); experiment: as above
T3 construct: extracellular domain; Made in 293 cells, purified by IMAC and SEC; amine coupled to a CM3 chip; also called hTfR1; not shown: hexa-histidine tag
Method: as §1, §2

[5] = target: T1, Sortilin receptor on HEK293 cells; experiment: cell-based or functional assay

Binder | binding result [1] | Mature Cathepsin D levels in cell lysate (ELISA), HEK293 cells, 100 ng/mL, 24 hours [2] | Kd [3] | koff [3] | kon [3] | Kd [4] | koff [4] | kon [4] | Mature Cathepsin D levels in cell lysate (ELISA), HEK293 cells, 100 ng/mL, 24 hours [5]
B1 | no binding | 66 | – | – | – | – | – | – | –
B2 | – | – | 13 nM | 0.00318 s⁻¹ | 244000 M⁻¹ s⁻¹ | 7.12 nM | 0.0052 s⁻¹ | 730000 M⁻¹ s⁻¹ | –
B3 | – | – | 9.7 nM | 0.0047 s⁻¹ | 485000 M⁻¹ s⁻¹ | 7.29 nM | 0.00434 s⁻¹ | 595000 M⁻¹ s⁻¹ | –
B4 | no binding | – | – | – | – | – | – | – | 100
